# Laboratory results published in patent US20220363763A1 (ABL BIO, published 2022).
# T1: human LAG3 (construct not stated) (human, UniProt P18627 23-450, limits assumed)
# T1 construct: also called human LAG3 protein; antigen
# T1 sequence (looked up): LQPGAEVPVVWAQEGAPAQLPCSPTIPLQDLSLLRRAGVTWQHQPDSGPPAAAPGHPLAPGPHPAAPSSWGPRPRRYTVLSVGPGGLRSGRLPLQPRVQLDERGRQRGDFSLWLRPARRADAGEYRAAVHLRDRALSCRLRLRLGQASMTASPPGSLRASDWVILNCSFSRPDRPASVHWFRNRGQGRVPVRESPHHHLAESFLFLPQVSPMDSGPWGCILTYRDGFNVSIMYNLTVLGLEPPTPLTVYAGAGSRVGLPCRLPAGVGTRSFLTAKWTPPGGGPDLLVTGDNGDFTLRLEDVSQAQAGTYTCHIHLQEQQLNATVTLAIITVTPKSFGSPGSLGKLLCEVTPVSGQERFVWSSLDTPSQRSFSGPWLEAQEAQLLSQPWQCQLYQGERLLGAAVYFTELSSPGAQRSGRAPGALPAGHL
# T2: recombinant his-tag human LAG3-ECD protein (human, UniProt P18627 23-450)
# T2 construct: extracellular domain; not shown: his tag
# T2 sequence (looked up): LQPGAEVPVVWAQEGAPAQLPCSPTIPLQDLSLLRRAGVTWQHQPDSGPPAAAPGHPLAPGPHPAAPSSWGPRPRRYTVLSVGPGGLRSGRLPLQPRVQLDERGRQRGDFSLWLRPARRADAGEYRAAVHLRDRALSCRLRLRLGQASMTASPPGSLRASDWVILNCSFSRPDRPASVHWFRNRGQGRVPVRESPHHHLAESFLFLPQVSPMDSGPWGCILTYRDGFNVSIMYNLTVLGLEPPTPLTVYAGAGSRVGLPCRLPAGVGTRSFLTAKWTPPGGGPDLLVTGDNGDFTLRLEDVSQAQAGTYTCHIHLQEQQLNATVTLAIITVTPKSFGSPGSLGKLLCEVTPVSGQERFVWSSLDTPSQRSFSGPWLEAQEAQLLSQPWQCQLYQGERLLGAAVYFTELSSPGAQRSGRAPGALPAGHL
# Target: T3, human PD-L1 (construct not stated) (human, UniProt Q9NZQ7 19-239, limits assumed)
# T3 construct: also called B7-H1 (PD-L1); PD-L1 protein
# Test: SPR Biacore, affinity ranking
# T3 sequence (Q9NZQ7 19-239 limits assumed): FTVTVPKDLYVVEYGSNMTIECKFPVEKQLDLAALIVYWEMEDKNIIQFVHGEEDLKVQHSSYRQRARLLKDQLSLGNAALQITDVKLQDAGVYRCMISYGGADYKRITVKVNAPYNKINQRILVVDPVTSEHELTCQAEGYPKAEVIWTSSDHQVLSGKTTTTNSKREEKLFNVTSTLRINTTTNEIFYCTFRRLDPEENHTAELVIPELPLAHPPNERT
Kd [nM],koff [s⁻¹],kon [M⁻¹ s⁻¹],Binder
1.36,0.000276,203000,"A1 (antibody, V domains shown) VH: EVQLVESGGGLVQPGGSLRLSCAASGFTFSSYDMSWVRQAPGKSLEWVATISDAGGYIYYRDSVKGRFTISRDNAKNSLYLQMNSLRDEDTAVYICARELLHRYALDYWGQGTTVTVSS VL: DIQMTQSPSSLSASVGDRVTITCKASQDVTPAVAWYQQKPGKAPKLLIYSTSSRYTGVPSRFSGSGSGTDFTFTISSLQPEDIATYYCQQHYTTPLTFGQGTKLEIK"

# Target: T1, human LAG3 (construct not stated)
# Test: BLI Octet Red 96, affinity ranking
Kd [nM],koff [s⁻¹],kon [M⁻¹ s⁻¹],Binder
39.8,0.00343,86200,"147H-4 (antibody, V domains shown, Common light chain; human gamma 1 / kappa constant domains) VH: QVQLVQSGAEVKKPGASVKVSCKASGYTFTNYWLGWVRQAPGQGLEWMGDIYPGGDYINYNEKFKGKATLTADTSISTAYMELSRLRSDDTAVYYCARPNLPGDYWGQGTTVTVSS VL: DIVMTQSPLSLPVTPGEPASISCRSSKSLLHSNGITYLYWYLQKPGQSPQLLIYQVSNLASGVPDRFSGSGSGTDFTLKISRVEAEDVGVYYCAQNLELPWTFGGGTKVEIK"
31.3,0.003,95800,"147H-5 (antibody, V domains shown, Common light chain; human gamma 1 / kappa constant domains) VH: QVQLVQSGAEVKKPGASVKVSCKASGYTFTNYWLGWVRQAPGQGLEWIGDIYPGGDYINYNEKFKGKATLTADTSISTAYMELSRLRSDDTAVYYCARPNLPGDYWGQGTTVTVSS VL: DIVMTQSPLSLPVTPGEPASISCRSSKSLLHSNGITYLYWYLQKPGQSPQLLIYQVSNLASGVPDRFSGSGSGTDFTLKISRVEAEDVGVYYCAQNLELPWTFGGGTKVEIK"
32.3,0.00533,165000,"147H-8 (antibody, V domains shown, Common light chain; human gamma 1 / kappa constant domains) VH: EVQLVQSGAEVKKPGASVKVSCKASGYTFTNYWLGWVRQAPGQGLEWMGDIYPGGDYINYNEKFKGRVTMTRDTSISTAYMELSRLRSDDTAVYYCARPNLPGDYWGQGTTVTVSS VL: DIVMTQSPLSLPVTPGEPASISCRSSKSLLHSNGITYLYWYLQKPGQSPQLLIYQVSNLASGVPDRFSGSGSGTDFTLKISRVEAEDVGVYYCAQNLELPWTFGGGTKVEIK"
55.2,0.00344,62300,"147H-12 (antibody, V domains shown, Common light chain; human gamma 1 / kappa constant domains) VH: EVQLVQSGAEVKKPGASVKVSCKASGYTFTNYWLGWVRQAPGQGLEWIGDIYPGGDYINYNEKFKGKATLTADTSISTAYMELSRLRSDDTAVYYCARPNLPGDYWGQGTTVTVSS VL: DIVMTQSPLSLPVTPGEPASISCRSSKSLLHSNGITYLYWYLQKPGQSPQLLIYQVSNLASGVPDRFSGSGSGTDFTLKISRVEAEDVGVYYCAQNLELPWTFGGGTKVEIK"
66.4,0.00448,67400,"147H-9 (antibody, V domains shown, Common light chain; human gamma 1 / kappa constant domains) VH: EVQLVQSGAEVKKPGASVKVSCKASGYTFTNYWLGWVRQAPGQGLEWMGDIYPGGDYINYNEKFKGRVTMTADTSISTAYMELSRLRSDDTAVYYCARPNLPGDYWGQGTTVTVSS VL: DIVMTQSPLSLPVTPGEPASISCRSSKSLLHSNGITYLYWYLQKPGQSPQLLIYQVSNLASGVPDRFSGSGSGTDFTLKISRVEAEDVGVYYCAQNLELPWTFGGGTKVEIK"
82.3,0.00404,49100,"147H-10 (antibody, V domains shown, Common light chain; human gamma 1 / kappa constant domains) VH: EVQLVQSGAEVKKPGASVKVSCKASGYTFTNYWLGWVRQAPGQGLEWMGDIYPGGDYINYNEKFKGRVTLTADTSISTAYMELSRLRSDDTAVYYCARPNLPGDYWGQGTTVTVSS VL: DIVMTQSPLSLPVTPGEPASISCRSSKSLLHSNGITYLYWYLQKPGQSPQLLIYQVSNLASGVPDRFSGSGSGTDFTLKISRVEAEDVGVYYCAQNLELPWTFGGGTKVEIK"

# Target: T4, human PD-L1-his taq protein (human, UniProt Q9NZQ7 19-239, limits assumed)
# T4 construct: also called recombinant PD-L1 protein; recombinant human PD-L1; not shown: his tag
# Test: SPR Biacore T200, antibody captured, PD-L1-his injected
# Experimental: The binding of the humanized antibodies to recombinant PD-L1 protein (human PD-L1-his taq) was tested by BIACORE™ using a capture method. The HL1210-3 mouse mAb were captured using anti-mouse Fc antibody coated on a CM5 chip. A series dilution of human PD-L1-his taq protein was injected over captured antibody for 3 mins at a flow rate of […]. The antigen was allowed to dissociate for 900 s. All the experiments were carried out on a Biacore T200.
# T4 sequence (Q9NZQ7 19-239 limits assumed): as the sequence (Q9NZQ7 19-239 limits assumed) above
Kd [nM],koff [s⁻¹],kon [M⁻¹ s⁻¹],Binder
0.867,7.53e-05,86800,"Hu1210-42 (antibody, V domains shown, Hu1210 VH.4e x Vk.1; human gamma 1 / kappa constant domains) VH: EVQLVESGGGLVQPGGSLRLSCAASGFTFSSYDMSWVRQAPGKSLEWVATISDVGGYIYYSDSVKGRFTISRDNAKNSLYLQMNSLRDEDTAVYICAREFGKRYALDYWGQGTTVTVSS VL: DIQMTQSPSSLSASVGDRVTITCKASQDVTPAVAWYQQKPGKAPKLLIYSTSSRYTGVPSRFSGSGSGTDFTFTISSLQPEDIATYYCQQHYTTPLTFGQGTKLEIK"
0.838,0.000108,129000,"Hu1210-28 (antibody, V domains shown, Hu1210 VH.5a x Vk.2a; human gamma 1 / kappa constant domains) VH: EVQLVESGGGLVQPGGSLRLSCAASGFTFSSYDMSWVRQAPGKGLEWVATISDGGGYIYYSDSVKGRFTISRDNAKNSLYLQMNSLRAEDTAVYICAREFGKRYALDYWGQGTLVTVSS VL: DIQMTQSPSSLSASVGDRVTITCKASQDVTPAVAWYQQKPGKAPKLLIYSTSSRYTGVPDRFTGSGSGTDFTLTISSLQPEDFATYYCQQHYTTPLTFGQGTKLEIKR"
1.49,0.000131,87700,"Hu1210-40 (antibody, V domains shown, Hu1210 VH.4c x Vk.1; human gamma 1 / kappa constant domains) VH: EVQLVESGGGLVQPGGSLRLSCAASGFTFSSYDMSWVRQAPGKSLEWVATISEGGGYIYYSDSVKGRFTISRDNAKNSLYLQMNSLRDEDTAVYICAREFGKRYALDYWGQGTTVTVSS VL: DIQMTQSPSSLSASVGDRVTITCKASQDVTPAVAWYQQKPGKAPKLLIYSTSSRYTGVPSRFSGSGSGTDFTFTISSLQPEDIATYYCQQHYTTPLTFGQGTKLEIK"

# Target: T2, recombinant his-tag human LAG3-ECD …
# Test: SPR Biacore T200, antibody captured by anti-human Fc, LAG3-ECD-his injected
# Experimental: The binding of the S20, S24, S27, S31, S87, S119, S120, S128, S136, S161 and T99 antibodies to recombinant his-tag human LAG3-ECD protein was examined by Biacore T200 using a capture method. Anti-LAG3 antibodies were captured using anti-human Fc antibody. The anti-human Fc antibody was coated on chip. Serial concentrations of his-tag human LAG3-ECD protein (0-4 nM) were injected over capture antibodies at the flow rate of 30 μl/min. The dissociation phase was 900 s or 550 s. The Biacore results for the anti-LAG3 antibodies have shown that these anti-LAG3 antibodies are high affinity binder to human LAG3.
Kd [nM],koff [s⁻¹],kon [M⁻¹ s⁻¹],Binder
0.815,0.000817,1e+06,"NLAG3-HDB169-S128 (antibody, human IgG1, V domains shown, Short label tied by its unique suffix) VH: QVQLVQSGAEVKKPGSSVKVSCKASGGTFSSYAISWVRQAPGQGLEWMGGIIPIFGTANYAQKFQGRVTITADESTSTAYMELSSLRSEDTAVYYCARDAGPVGYYGMDVWGQGTMVTVSS VL: AIQMTQSPSSLSASVGDRVTITCRASQGISSWLAWYQQKPGKAPKLLIYAASSLQSGVPSRFSGSGSGTDFTLTISRLQPEDFATYYCQQAKSFPLTFGGGTKVEIKR"
1.88,0.00264,1.4e+06,"NLAG3-HDB169-S120 (antibody, human IgG1, V domains shown, Short label tied by its unique suffix) VH: QVQLVQSGAEVKKPGSSVKVSCKASGGTFSSYAISWVRQAPGQGLEWMGGIIPIFGTANYAQKFQGRVTITADESTSTAYMELSSLRSEDTAVYYCARSGDRYDFWSGYWGQGTLVTVSS VL: EIVLTQSPSSVSASVGDRVTITCRASRGISSWLAWYQQKPGKAPKLLIYAASTLQSGVPSRFSGSGSGTDFTLTISSLQPEDFATYYCQQAKSFPLTFGGGTKVEIKR"
0.892,0.000553,620000,"NLAG3-HDB323-S161 (antibody, human IgG1, V domains shown, Short label tied by its unique suffix) VH: not shown VL: AIQLTQSPSSLSASVGDRVTITCRASEGISGWLAWYQQIPGKAPKLLIYAASSLETGVPSRFSGSGYGTDFTLTISSLQPEDFATYYCQQADSFPFTFGPGTKVEIKR"
0.00251,2.33e-06,928000,"NLAG3-HDB169-S87 (antibody, human IgG1, V domains shown, Short label tied by its unique suffix) VH: QVQLVQSGAEVKKPGSSVKVSCKASGGTFSSYAISWVRQAPGQGLEWMGGIIPIFGTANYAQKFQGRVTITADESTSTAYMELSSLRSEDTAVYYCAKDIRWYYGMDVWGQGTTVTVSS VL: DIVMTQSPSSVSAFVGDRVTITCRASQGVSSWLAWFQQKPGKAPKLLIYAASTLQSGVPSRFSGRGYGTEFTLTISSLQPEDLATYYCQQVKSFPLTFGGGTKVDIKR"
0.0443,7.33e-06,165000,"NLAG3-HDB323-S20 (antibody, human IgG1, V domains shown, Human IgG1 / kappa (pFUSEss-CHIg-hG1, pFUSE2ss-CLIg-hk); Short label tied by its unique suffix) VH: not shown VL: VIWMTQSPSSLSASVGDRVTITCRASQGVSSYLAWYQQKPGKAPKLLIYAASSLQSGVPSRFSGSGSGTEFTLTISSLQPEDFATYYCQQTNWFPLTFGPGTRLEIKR"
0.104,8.27e-05,798000,"NLAG3-HDB169-S136 (antibody, human IgG1, V domains shown, Short label tied by its unique suffix) VH: QVQLVQSGAEVKKPGSSVKVSCKASGGTFSSYAISWVRQAPGQGLEWMGGIIPIFGTANYAQKFQGRVTITADESTSTAYMELSSLRSEDTAVYYCTRGQDSTWYSSFDYWGQGTLVTVSS VL: AIRMTQSPSSLSASVGDRVTITCRASQSISSYLNWYQQKPGKAPNLLIYAVSTLQSGVPSRFSGSGSGTVFTLTISSLQPEDFATYFCQQGNSFPLTFGGGTKVEIKR"
6.73,0.012,1.79e+06,"NLAG3-HDB169-S24 (antibody, human IgG1, V domains shown, Short label tied by its unique suffix) VH: QVQLVQSGAEVKKPGSSVKVSCKASGGTFSSYAISWVRQAPGQGLEWMGGIIPIFGTANYAQKFQGRVTITADESTSTAYMELSSLRSEDTAVYYCTREPHFDYWGQGTLVTVSS VL: EIVMTQSPSSLSASVGDRVTITCQASQDISNYLNWYQQKPGKAPKLLIYDASNLETGVPSRFSGSGSGTEFTLTISSLRPEDFATYFCQQADSFPITFGQGTRLEIKR"
